According to US20210221899A1 (published 2021):
Substitutions are numbered along the chain they refer to.

B1: can9L12VH_E99A (antibody, V domains shown)
VH: EVQLVESGGDLVKPGGSLRLSCVASGFTFSSHGMHWVRQSPGKGLQWVAVINSGGSSTYYTDAVKGRFTISRDNAKNTVYLQMNSLRAEDTAMYYCAKASVGGWEQLVGPHFDYWGQGTLVIVSS
VL: QSVLTQPTSVSGSLGQRVTISCSGSTNNIGILGASWYQLFPGKAPKLLVYGNGNRPSGVPDRFSGADSGDSVTLTITGLQAEDEADYYCQSFDTTLGAHVFGGGTHLTVL
B2: can9L12VH_L107A (antibody, V domains shown)
VH: B1 VH with A99E, L107A
VL: B1 VL
B3: can9L12VH_S57A (antibody, V domains shown)
VH: B1 VH with S57A, A99E
VL: B1 VL
B4: can9L12VH_F29A (antibody, V domains shown)
VH: B1 VH with F29A, A99E
VL: B1 VL
B5: can9L12VH_N52A (antibody, V domains shown)
VH: B1 VH with N52A, A99E
VL: B1 VL
B6: can9L12VH_E105A (antibody, V domains shown)
VH: B1 VH with A99E, E105A
VL: B1 VL
B7: can9L12VH_S53A (antibody, V domains shown)
VH: B1 VH with S53A, A99E
VL: B1 VL
B8: can9L12VH_S100A (antibody, V domains shown)
VH: B1 VH with A99E, S100A
VL: B1 VL
B9: can9L12VH_Q106A (antibody, V domains shown)
VH: B1 VH with A99E, Q106A
VL: B1 VL
B10: can9L12VH_S30A (antibody, V domains shown)
VH: B1 VH with S30A, A99E
VL: B1 VL
B11: can9L12VH_G103A (antibody, V domains shown)
VH: B1 VH with A99E, G103A
VL: B1 VL
B12: can9L12VH_F27A (antibody, V domains shown)
VH: B1 VH with F27A, A99E
VL: B1 VL
B13: can9L12VH_G54A (antibody, V domains shown)
VH: B1 VH with G54A, A99E
VL: B1 VL
B14: can9L12VH_V101A (antibody, V domains shown)
VH: B1 VH with A99E, V101A
VL: B1 VL
B15: can9L12VH_P110A (antibody, V domains shown)
VH: B1 VH with A99E, P110A
VL: B1 VL
B16: can9L12VH_H111A (antibody, V domains shown)
VH: B1 VH with A99E, H111A
VL: B1 VL
B17: can9L12VH_S31A (antibody, V domains shown)
VH: B1 VH with S31A, A99E
VL: B1 VL
B18: can9L12VH_G55A (antibody, V domains shown)
VH: B1 VH with G55A, A99E
VL: B1 VL
B19: can9L12VH_G109A (antibody, V domains shown)
VH: B1 VH with A99E, G109A
VL: B1 VL
B20: can9L12VH_F112A (antibody, V domains shown)
VH: B1 VH with A99E, F112A
VL: B1 VL
B21: can9L12VH_G26A (antibody, V domains shown)
VH: B1 VH with G26A, A99E
VL: B1 VL
B22: can9L12VH_S56A (antibody, V domains shown)
VH: B1 VH with S56A, A99E
VL: B1 VL
B23: can9L12VH_T58A (antibody, V domains shown)
VH: B1 VH with T58A, A99E
VL: B1 VL
B24: can9L12VH_K98A (antibody, V domains shown)
VH: B1 VH with K98A, A99E
VL: B1 VL
B25: can9L12VH_G102A (antibody, V domains shown)
VH: B1 VH with A99E, G102A
VL: B1 VL
B26: can9L12VH_G33A (antibody, V domains shown)
VH: B1 VH with G33A, A99E
VL: B1 VL
B27: can9L12VH_H32A (antibody, V domains shown)
VH: B1 VH with H32A, A99E
VL: B1 VL
B28: can9L12VH_T28A (antibody, V domains shown)
VH: B1 VH with T28A, A99E
VL: B1 VL

What was measured:
Test in all cases: SPR (Biacore T200), 100 nM mAb on NGF chip, similarity to parent mAb
human NGF = molecular target: T1, human NGF (human, UniProt P01138 122-241)
T1 construct: also called human Nerve Growth Factor; hN
T1 chain: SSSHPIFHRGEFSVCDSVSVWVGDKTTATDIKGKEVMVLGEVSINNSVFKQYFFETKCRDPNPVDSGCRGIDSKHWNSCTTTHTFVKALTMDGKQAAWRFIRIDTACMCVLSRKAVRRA
Excerpt: (§1) The region of an antibody responsible for antigen recognition represents the paratope. A paratope is created by a combination of amino acids in the complementarity determining regions (CDRs) of both the heavy and light chain variable regions. The binding between antibody and antigen is often mediated by side chains of CDR residues with side chains or carbohydrate moieties of the antigen. To help define critical side chains involved in antibody recognition alanine scanning mutagenesis was performed on each CDR residue in both the heavy and light chain, the technique as described by Cunningham and Wells (1989) Science, Vol. 244, Issue 4908, pp. 1081-1085. These mutants were then individually tested for the ability to NGF using the Biacore. […] Values were then compared to the wild type antibodies and are represented in the tables as a percent of wild type binding. The data presented in Tables 4 and 5 below are shown as a “percent similarity score” compared to wild type.
(§2) The mean response unit of four replicates of the parent mAb+/−3 standard deviations was used to generate parameters to define a threshold of response units comprising both the on- and off-rates antibody binding. The percentage of data points for each mutant fell within this threshold was then used to define a “% similarity score”. […] Results from substitution of alanine at each CDR position

canine NGF = molecular target: T2, canine NGF (canine, UniProt Q29074 110-229 (pig entry), limits assumed)
T2 construct: The protein was secreted from CHO cells and purified; also called cNGF; canine β-NGF
T2 chain: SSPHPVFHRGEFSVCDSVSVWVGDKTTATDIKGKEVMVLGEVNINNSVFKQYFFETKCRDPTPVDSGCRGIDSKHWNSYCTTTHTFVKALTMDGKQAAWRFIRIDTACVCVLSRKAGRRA
Excerpt: as §1, §2

rat NGF = molecular target: T3, rat NGF (rat, UniProt P25427 122-241)
T3 construct: also called rN
Excerpt: as §1, §2

T3 sequence (P25427 122-241 limits assumed): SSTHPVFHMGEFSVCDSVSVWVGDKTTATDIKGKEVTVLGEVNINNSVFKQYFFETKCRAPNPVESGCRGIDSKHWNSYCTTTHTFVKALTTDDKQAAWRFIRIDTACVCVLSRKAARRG

| Binder | Percent Similarity Score (KD on hN) (human NGF) | Percent Similarity Score (KD on cN) (canine NGF) | Percent Similarity Score (KD on rN) (rat NGF) |
| --- | --- | --- | --- |
| B1 | 82% | 97.7% | 80.5% |
| B2 | 1.82% | 5.45% | 2% |
| B3 | 33.4% | 89.9% | 100% |
| B4 | 100% | 100% | 99.9% |
| B5 | 38.2% | 85.8% | 19.7% |
| B6 | 98.4% | 100% | 100% |
| B7 | 100% | 100% | 99.9% |
| B8 | 42.1% | 76.2% | 51.6% |
| B9 | 100% | 100% | 99.9% |
| B10 | 31.2% | 94.7% | 99.9% |
| B11 | 38.2% | 99.8% | 62.5% |
| B12 | 100% | 100% | 100% |
| B13 | 96.2% | 100% | 93.8% |
| B14 | 5.29% | 13.6% | 4.27% |
| B15 | 2.1% | 6.48% | 2.6% |
| B16 | 2.79% | 10.1% | 3.25% |
| B17 | 99.9% | 100% | 100% |
| B18 | 100% | 100% | 99.3% |
| B19 | 40% | 100% | 62% |
| B20 | 8% | 28.3% | 11.8% |
| B21 | 97.4% | 100% | 94.8% |
| B22 | 40.5% | 96.8% | 96% |
| B23 | 100% | 100% | 99.9% |
| B24 | 8.58% | 22.8% | 7.92% |
| B25 | 3.4% | 11% | 4.7% |
| B26 | 100% | 100% | 99.9% |
| B27 | 13.8% | 38.2% | 51.5% |
| B28 | 96.6% | 100% | 100% |
